PMC11407943, “Cdc14 phosphatases use an intramolecular pseudosubstrate motif to stimulate and regulate catalysis” (The Journal of Biological Chemistry, 2024)

Test system: T1, Cc1cc(=O)oc2c(F)c(OP(=O)(O)O)c(F)cc12
T1 construct: codons 1-411; N-terminal GST; expressed in E. coli
Type: biochemical
Settings: pH 7.5; 30.0 °C
Description: Enzym e kcat (sec-1) KM (µM)

hCdc14B^3A (Homo sapiens; K435A/L431A/R432A)
Km: 1.68 µM
